Assay [1] concerns the target PcVps75ΔC (residues 1-223), crystallised as a dimer (Pneumocystis carinii). The assay is described as follows: crystal structure.
The target of assay [2] is PcVps75ΔCM-SeMet (residues 1-223, E56 and N127 mutated to methionine, selenomethionine-labeled), cry (Pneumocystis carinii). The assay is described as follows: crystal structure.

As a reminder, the stoichiometry N is the number of molecules, sites or subunits per partner or assembly. In assay [1], “PcVps75ΔC (residues 1-223), crystallised as a dimer (domain or fragment)” gave a stoichiometry N of 2.

In the case of “PcVps75ΔCM-SeMet (residues 1-223, E56 and N127 mutated to methionine, selenomethionine-labeled), cry (domain or fragment)”, the stoichiometry N in assay [2] was found to be 4.
